Experimental data: patent publication US20150210756A1 (NEW YORK UNIVERSITY, published 2015)
Numbering of substitutions follows the chain as printed.

T1: LukD (S. aureus, UniProt Q2FXB1 27-327)
T1 construct: also called leukotoxin D
T1 sequence: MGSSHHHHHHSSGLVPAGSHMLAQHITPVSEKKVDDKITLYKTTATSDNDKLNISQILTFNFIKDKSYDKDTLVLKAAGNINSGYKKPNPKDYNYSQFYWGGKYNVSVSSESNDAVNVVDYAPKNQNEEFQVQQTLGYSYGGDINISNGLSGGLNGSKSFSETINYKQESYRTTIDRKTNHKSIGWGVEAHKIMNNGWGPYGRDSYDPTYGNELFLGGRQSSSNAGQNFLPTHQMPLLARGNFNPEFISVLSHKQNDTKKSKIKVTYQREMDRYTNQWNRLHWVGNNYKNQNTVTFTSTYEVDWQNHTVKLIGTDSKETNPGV

B1: Luk12 (designed binder)
chain: LPAPKNLVVSRVTEDSARLSWRAKPWAPKFDSFLIQYQESEKVGEAIVLTVPGSERSYDLTGLKPGTEYTVSIYGVKASEKFIESNPLSAIFTT
notes: also called Luk12 anti-LukD FN3 domain; not shown: C-terminal poly-histidine tag
B2: Luk22 (designed binder)
chain: B1 chain with T70A
notes: also called anti-LukD FN3 domain Luk22; not shown: C-terminal poly-histidine tag
B3: Luk11 (designed binder)
chain: B1 chain with K77S, S79I, E80K, K81P, F82G, I83H, E84T
notes: not shown: C-terminal poly-histidine tag
B4: Luk8 (designed binder)
chain: LPAPKNLVVSRVTEDSARLSWKRKPWAPIFDSFLIQYQESEKVGEAIVLTVPGSERSYDLTGLKPGTEYTVSIYGVWDHAGPKYEIESNPLSAIFTT
notes: as for B3
B5: Luk21 (designed binder)
chain: B4 chain with K22V, R23T, P28E, I29Y
notes: as for B3
B6: Luk10 (designed binder)
chain: LPAPKNLVVSRVTEDSARLSWAASENAFVFDSFLIQYQESEKVGEAIVLTVPGSERSYDLTGLKPGTEYTVSIYGVGGKLHNQFEWLSNPLSAIFTT
notes: also called anti-LukD FN3 domain Luk10; not shown: C-terminal poly-histidine tag
B7: Luk9 (designed binder)
chain: LPAPKNLVVSRVTEDSARLSWDRTYSLLNYFDSFLIQYQESEKVGEAIVLTVPGSERSYDLTGLKPGTEYTVSIYGVGGQHPTYESNPLSAIFTT
notes: as for B3
B8: Luk47 (designed binder)
chain: LPAPKNLVVSRVTEDSARLSWTAPDAAFDSFGIQYFETTESGEAIVLTVPGSERSYDLTGLKPGTEYVVFISGVKGGPLSWPLSAIFTT
notes: as for B3
B9: Luk52 (designed binder)
chain: B8 chain with G32W, F36G, T38A, T39Q, S41F, V68I, S72T, P78N, L79K, W81Y
notes: as for B3
B10: Luk59 (designed binder)
chain: B8 chain with G32D, Q34S, F36N, T38F, T39A, E40W, F70Y, S72H, L79T, W81Y
notes: as for B3
B11: Luk53 (designed binder)
chain: B8 chain with G32T, T38A, T39E, E40A, S41N, V68L, S72V, P78H, L79S, W81L
notes: as for B3
B12: Luk51 (designed binder)
chain: B8 chain with G32Q, Q34H, T38S, T39E, E40P, S41G, S72I, P78W, L79S, W81L
notes: as for B3
B13: Luk55 (designed binder)
chain: B8 chain with G32W, T38S, T39A, E40G, S41E, V68L, S72V, P78V, L79P, W81Y
notes: as for B3
B14: Luk60 (designed binder)
chain: LPAPKNLVVSRVTEDSARLSWTAPDAAFDSFDIQYWEWWPFGEAIVLTVPGSERSYDLTGLKPGTEYGVIILGVKGGFRSTPLSAIFTT
notes: as for B3
B15: Luk57 (designed binder)
chain: B14 chain with D29N, D32Y, Q34E, W36F, W39F, F41A, G68A, L72H, F78Q
notes: as for B3
B16: Luk54 (designed binder)
chain: B14 chain with A27V, D32R, Q34E, W36S, F41I, I70V, L72A, F78G, R79Y, T81V
notes: as for B3
B17: Luk50 (designed binder)
chain: B14 chain with D32V, Q34P, W36S, F41V, I70Y, L72V, F78T, R79W, T81A
notes: as for B3
B18: Luk48 (designed binder)
chain: B14 chain with D32H, Q34E, W36G, F41T, I70L, L72V, T81S
notes: as for B3
B19: Luk28 (designed binder)
chain: B14 chain with D32A, F41P, F78W, R79Y, T81N
notes: as for B3
B20: Luk31 (designed binder)
chain: LPAPNNLVVSRVTEDSARLSWDWDKYYTNRFDSFLIQYQESEKVGEAIVLTVPGSERSYDLTGLKPGTEYTVSIYGVLVRDYIRAAEWYSNPLSAIFTT
notes: as for B3
B21: Luk37 (designed binder)
chain: LPAPKNLVVSRVTEDSARLSWTAPDAAFDSFLIQYQESEKVGEAIVLTVPGSERSYDLTGLKPGTEYTVSIYGVVGWPLFIQSNPLSAIFTT
notes: as for B3
B22: Luk49 (designed binder)
chain: LPAPKNLVVSRVTEDSARLSWTAPDAAFDSFAIVYAEHWPAGEAIVLTVPGSERSYDLTGLKPGTEYNVTIPGVKGGKYSDPLSAIFTT
notes: as for B3
B23: Luk26 (designed binder)
chain: LPAPKNLVVSRVTEDSARLSWTAPDAAFDSFHIEYAEPWVWGEAIVLTVPGSERSYDLTGLKPGTEYVVFIGGVKGGHNSTPLSAIFTT
notes: also called anti-LukE FN3 domain Luk26; not shown: C-terminal poly-histidine tag
B24: Luk27 (designed binder)
chain: LPAPKNLVVSRVTEDSARLSWTAPDAAFDSFPIVYQEWQFYGEAIVLTVPGSERSYDLTGLKPGTEYLVDIYGVKGGSWSYPLSAIFTT
notes: also called anti-LukE FN3 domain Luk27; not shown: C-terminal poly-histidine tag
B25: Luk46 (designed binder)
chain: LPAPKNLVVSRVTEDSARLSWTAPDAAFDSFWIHYEESTWAGEAIVLTVPGSERSYDLTGLKPGTEYGVVIVGVKGGLKSHPLSAIFTT
notes: as for B3
B26: Luk32 (designed binder)
chain: LPAPKNLVVSRVTEDSARLSWYHENAYLLFDSFLIQYQESEKVGEAIVLTVPGSERSYDLTGLKPGTEYTVSIYGVVYDLTPEKRSSNPLSAIFTT
notes: as for B3
B27: Luk58 (designed binder)
chain: LPAPKNLVVSRVTEDSARLSWTAPDAAFDSFDIEYDESAHFGEAIVLTVPGSERSYDLTGLKPGTEYIVFIYGVKGGYASIPLSAIFTT
notes: as for B3
B28: Luk38 (designed binder)
chain: LPAPKNLVVSRVTEDSARLSWTAPDAAFDSFLIQYQESEKVGEAIVLTVPGSERSYDLTGLKPGTEYTVSIYGVELIYHGWLDFVFSNPLSAIFTT
notes: also called anti-LukE FN3 domain Luk38; not shown: C-terminal poly-histidine tag
B29: Luk39 (designed binder)
chain: B28 chain with E75R, L76V, I77F, H79F, G80S, W81V, L82E, D83P, F84T, V85W
notes: as for B3
B30: Luk43 (designed binder)
chain: LPAPKNLVVSRVTEDSARLSWTAPDAAFDSFLIQYQESEKVGEAIVLTVPGSERSYDLTGLKPGTEYTVSIYGVNSFGRPTLNLFSNPLSAIFTT
notes: as for B3
B31: Luk45 (designed binder)
chain: B30 chain with N75A, S76W, F77L, G78T, R79N, P80A, T81Y, L82E, N83W, L84E
notes: as for B3
B32: Luk40 (designed binder)
chain: B30 chain with N75S, S76Y, F77A, R79E, T81L, N83W, L84I, F85Y
notes: as for B3
B33: Luk44 (designed binder)
chain: B30 chain with N75E, S76W, F77L, G78Q, R79Y, P80Y, T81G, L82E, N83T
notes: as for B3
B34: Luk30 (designed binder)
chain: LPAPKNLVVSRVTEDSARLSWAFNWNYFAFDSFLIQYQESEKVGEAIVLTVPGSERSYDLTGLKPGTEYTVSIYGVVALNTGNKKSNPLSAIFTT
notes: as for B3
B35: Luk41 (designed binder)
chain: LPAPKNLVVSRVTEDSARLSWTAPDAAFDSFLIQYQESEKVGEAIVLTVPGSERSYDLTGLKPGTEYTVSIYGVSEVPYSEYWFSNPLSAIFTT
notes: as for B3
B36: Luk42 (designed binder)
chain: B35 chain with S75V, E76W, V77G, P78Y, Y79R, S80L, E81T, Y82T, W83E, F84H
notes: as for B3
B37: Luk29 (designed binder)
chain: LPAPKNLVVSRVTEDSARLSWDEQFVSNFDSFLIQYQESEKVGEAIVLTVPGSERSYDLTGLKPGTEYTVSIYGVFVPWDGFSEINYSNPLSAIFTT
notes: as for B3
B38: Luk33 (designed binder)
chain: LPAPKNLVVSRVTEDSARLSWTAPDAAFDSFLIQYQESEKVGEAIVLTVPGSERSYDLTGLKPGTEYTVSIYGVAFIPDEIEFSNPLSAIFTT
notes: as for B3
B39: Luk36 (designed binder)
chain: B38 chain with F76D, I77V, I81Y
notes: as for B3
B40: Luk35 (designed binder)
chain: B38 chain with F76H, D79W, I81F, F83W, N85K
notes: as for B3
B41: Luk34 (designed binder)
chain: B38 chain with L61P, A75V, F76V, I77V, D79H, I81F
notes: as for B3
B42: Luk56 (designed binder)
chain: LPAPKNLVVSRVTEDSARLSWTAPDAAFDSFYIQYIELEIGEAIVLTVPGSERSYDLTGLKPGTEYGVFISGVKGGWNSYPLSAIFTT
notes: as for B3

What follows are binders tested against T1, LukD (assay: ELISA after cis-display panning).
B1: binds. B2: binds. B3: binds. B4: binds. B5: binds. B6: binds. B7: binds.

What follows are binders tested against T2, LukE (S. aureus, UniProt Q2FXB0 24-306) (assay: ELISA after cis-display panning).
T2 construct: also called leukotoxin E
B8: binds. B9: binds. B10: binds. B11: binds. B12: binds. B13: binds. B14: binds. B15: binds. B16: binds. B17: binds. B18: binds. B19: binds. B20: binds. B21: binds. B22: binds. B23: binds. B24: binds. B25: binds. B26: binds. B27: binds. B28: binds. B29: binds. B30: binds. B31: binds. B32: binds. B33: binds. B34: binds. B35: binds. B36: binds. B37: binds. B38: binds. B39: binds. B40: binds. B41: binds. B42: binds.
